Patent US20230279115A1 (MABWELL SHANGHAI BIOSCIENCE, published 2023)
Substitutions are numbered along the chain they refer to.

B1: KN035 (fusion protein of the KN035 variable region and Fc) (Fc fusion)
chain: QVQLVESGGGLVQPGGSLRLSCAASGKMSSRRCMAWFRQAPGKERERVAKLLTTSGSTYLADSVKGRFTISRDNSKNTVYLQMNSLRAEDTAVYYCAADSFEDPTCTLVTSSGAFQYWGQGTLVTVSS
notes: Built by the same strategy as chF2; also called Envafolimab; control antibody; not shown: human Fc (IgG1, hFc) from the same expression vector and strategy as chF2
B2: hzF2-m9 (VHH)
VHH: EVQLVESGGGLVQPGGSLRLSCAASRDSDEGASCMGWFRQAPGKEREGVAIIFNAGERTDYGDSVKGRFTISRDNAKNTLYLQMNSLRAEDTAVYYCATVWCGSWVARSWGQGTLVTVSS
notes: also called humanized single variable domain antibody hzF2-m9
B3: hzF2-m1 (VHH)
VHH: B2 VHH with E30D, C34S, E45G, R46L, C102S
notes: The parent hzF2 is a VHH-human IgG1 Fc fusion; also called humanized single variable domain antibody hzF2-m1
B4: hzF2-m2 (VHH)
VHH: B2 VHH with R26G, E30D, E45G, R46L
notes: The parent hzF2 is a VHH-human IgG1 Fc fusion; also called humanized single variable domain antibody hzF2-m2
B5: hzF2-m3 (VHH)
VHH: B2 VHH with D29S, E30S, E45G, R46L
notes: The parent hzF2 is a VHH-human IgG1 Fc fusion; also called humanized single variable domain antibody hzF2-m3
B6: hzF2-m4 (VHH)
VHH: B2 VHH with D29N, E30D, E45G, R46L
notes: The parent hzF2 is a VHH-human IgG1 Fc fusion; also called humanized single variable domain antibody hzF2-m4
B7: hzF2-m7 (VHH)
VHH: B2 VHH with E30D, G31S, E45G, R46L
notes: The parent hzF2 is a VHH-human IgG1 Fc fusion; also called humanized single variable domain antibody hzF2-m7
B8: hzF2-m8 (VHH)
VHH: B2 VHH with E30D, A55V
notes: also called humanized single variable domain antibody hzF2-m8
B9: hzF2-m10 (VHH)
VHH: B2 VHH with E30D, W101Y
notes: Framework 2 is KEREG; also called humanized single variable domain antibody hzF2-m10
B10: hzF2-m11 (VHH)
VHH: B2 VHH with E30D, W101Y, W105Y
notes: Framework 2 is KEREG; also called humanized single variable domain antibody hzF2-m11
B11: hzF2-m12 (VHH)
VHH: B2 VHH with A55V
notes: Framework 2 is KEREG; also called humanized single variable domain antibody hzF2-m12
B12: hzF2-m13 (VHH)
VHH: B2 VHH with E30D, W101F, W105F
notes: Framework 2 is KEREG; also called humanized single variable domain antibody hzF2-m13
B13: hzF2-m14 (VHH)
VHH: B2 VHH with A55V, W101Y, W105Y
notes: Framework 2 is KEREG; also called humanized single variable domain antibody hzF2-m14
B14: hzF2-m15 (VHH)
VHH: B2 VHH with A55V, W101F, W105Y
notes: Framework 2 is KEREG; also called humanized single variable domain antibody hzF2-m15
B15: hzF2-m16 (VHH)
VHH: B2 VHH with A55V, W101F, W105F
notes: Framework 2 is KEREG; also called humanized single variable domain antibody hzF2-m16

Columns and labels:
[1] = target: T1, human PD-L1 expressed on the cell surface (human, UniProt Q9NZQ7 19-290); assay: flow cytometry on CHO-PD-L1-CD3L cells, FITC anti-human Fc
T1 construct: whole, on cells; also called CHO-PD-L1-CD3L cells; CHO-PD-L1
Experimental: Cells (CHO-PD-L1-CD3L cells) were collected after centrifugation, divided into 5×10⁵ cells/sample/100 µL. Gradient diluted single variable domain antibody was added to the cells at a final concentration of 66 nM as the highest concentration, 3-fold serial dilution to make 10 gradients; then incubated on ice for 2h. The cells were washed twice with ice-cold PBS (containing 0.05% Tween). FITC-labeled anti-human Fc secondary antibody (Cat.: F9512, Sigma) was added, and incubated on ice for 1h. The cells were washed twice with ice-cold PBS (containing 0.05% Tween), resuspended in 200 µL of Flow Cytometry Buffer, and the mean fluorescence intensity (MFI) of the cells was detected by flow cytometer (Model B49007AD, SNAW31211, BECKMAN COULTER).

[2] = target: T2, human PD-L1 recombinant protein (human, UniProt Q9NZQ7 19-238); assay: BLI (Octet QKe), antibody captured on AHC probe, PD-L1 60 nM
T2 construct: also called recombinant PD-L1 protein; recombinant PD-L1
Experimental: Using the Octet QKe system instrument from Fortebio Company, the ability of chF2 to bind corresponding recombinant antigen was determined by using the capture antibody (AHC) biological probe against the Fc fragment of the human antibody to capture the Fc fragment of the antibody. During the measurement, chF2 was diluted with PBS buffer to 4 µg/mL, and flowed over the surface of AHC probe (Cat.: 18-0015, PALL) for 120 s. A human PD-L1 recombinant protein was used as the mobile phase to interact with the antibody captured on the chip surface. The recombinant PD-L1 protein concentration was 60 nM. The binding time for each antigen was 300 s, and the final dissociation time was 300 s.

[3] = target: T3, PD-L1-mFc (human, UniProt Q9NZQ7 19-238); assay: blocking ELISA: PD-1-hFc coated at 0.5 µg/mL, 0.5 µg/mL PD-L1-mFc co-incubated with the titrated binder (50 nM, 1.5-fold, 10 points), detection with HRP-anti-mouse Fc; blocked partner PD-1-hFc
T3 construct: range 19-238; not shown: mouse Fc (mFc)
Experimental: Human PD-1-hFc (PD-1 Sequence No. NP_005009.2, 21aa-167aa) was diluted with PBS to 0.5 µg/mL, coated on an ELISA plate overnight at 4° C. Then the plate was blocked with 5% BSA for 60 min at 37° C. in a thermostatic incubator. Gradient dilutions of hzF2 and control antibody KN035, and an isotype control NC-hIgG1 (initial working concentration of 50 nM, 1.5-fold dilution to 10 concentration gradients), were added, then PD-L1-mFc (PD-L1 Sequence No. NP_054862.1, 19aa-238aa) was added at a working concentration of 0.5 µg/mL, co-incubated and reacted in a thermostatic incubator at 37° C. for 60 min. The plate was washed 4 times with PBST; then added 1:5000 diluted HRP-anti-mouse Fc (Cat.:115-035-071, Jackson Immuno Research) thereto, reacted for 45 min, and added TMB (Beijing Taitianhe Biology, Cat.: ME142) substrate to develop color for 15 min. After adding 2 M HCl to stop the reaction, the plate was read and recorded about the absorbance value of A450nm-630nm of the well plate by a reader taking 630 nm as the reference wavelength, and 450 nm as the detection wavelength.

[4] = target: T1, human PD-L1 expressed on the cell …; assay: cell-based or functional assay
[5] = target: T4, murine PD-L1 recombinant protein (murine, UniProt Q9EP73 19-238, limits assumed); assay: BLI (Octet QKe), antibody captured on AHC probe, antigen as mobile phase
T4 construct: also called recombinant murine PD-L1
Experimental: (§1) The Octet QKe system instrument from Fortebio Company was used to determine whether chF2 could bind to recombinant monkey PD-L1 and recombinant murine PD-L1 by using the capture antibody (AHC) biological probe of anti-human antibody Fc segment to capture the Fc segment of the antibody. During the measurement, chF2 was diluted to 4 µg/mL with PBS buffer and flowed over the surface of AHC probe (PALL, Cat.: 18-0015) for 120 s. The monkey PD-L1 recombinant protein and the murine PD-L1 recombinant protein were used as mobile phases to interact with the antibodies captured on the surface of the chip. The PD-L1 recombinant protein concentration was 60 nM. The binding time of each antigen was 300 s, and the final dissociation time was 300 s.

[6] = target: T5, monkey PD-L1 recombinant protein (monkey); assay: BLI (Octet QKe), antibody captured on AHC probe, antigen 60 nM
T5 construct: also called recombinant monkey PD-L1
Experimental: as §1

[7] = target: T2, human PD-L1 recombinant protein; assay: BLI (method per paragraph 89); target not given, taken as human PD-L1 recombinant protein
[8] = target: T2, human PD-L1 recombinant protein; assay: BLI, human PD-L1 recombinant protein

T2 sequence (Q9NZQ7 19-238 limits assumed): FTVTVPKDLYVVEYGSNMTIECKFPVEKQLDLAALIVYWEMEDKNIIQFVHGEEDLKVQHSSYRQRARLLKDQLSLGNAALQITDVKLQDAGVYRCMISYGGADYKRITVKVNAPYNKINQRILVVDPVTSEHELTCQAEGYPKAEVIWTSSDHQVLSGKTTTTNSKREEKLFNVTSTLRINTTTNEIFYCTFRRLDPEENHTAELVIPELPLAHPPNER
T1 sequence (Q9NZQ7 19-290): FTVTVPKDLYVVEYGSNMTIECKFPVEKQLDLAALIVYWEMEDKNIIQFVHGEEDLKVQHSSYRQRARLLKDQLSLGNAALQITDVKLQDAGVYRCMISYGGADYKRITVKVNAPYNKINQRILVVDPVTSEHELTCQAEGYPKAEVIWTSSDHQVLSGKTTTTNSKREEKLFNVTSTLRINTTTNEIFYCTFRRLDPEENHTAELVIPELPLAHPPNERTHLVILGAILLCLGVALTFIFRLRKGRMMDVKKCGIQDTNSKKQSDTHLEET
T3 sequence (Q9NZQ7 19-238 limits assumed): as the sequence (Q9NZQ7 19-238 limits assumed) above
T4 sequence (Q9EP73 19-238 limits assumed): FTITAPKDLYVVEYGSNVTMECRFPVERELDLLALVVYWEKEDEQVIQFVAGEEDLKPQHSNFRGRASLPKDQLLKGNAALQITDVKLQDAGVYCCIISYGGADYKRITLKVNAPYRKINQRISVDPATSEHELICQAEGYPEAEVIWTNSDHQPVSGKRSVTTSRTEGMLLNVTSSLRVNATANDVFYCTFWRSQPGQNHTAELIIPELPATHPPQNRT

Row | Binder | Kd [7] | Kd [8] | koff [8] | kon [8] | other results
1 | B1 | – | – | – | – | EC50 [1]: 1.27 nM; Kd [2]: 1.5 nM; koff [2]: 0.00035 s⁻¹; kon [2]: 233000 M⁻¹ s⁻¹; IC50 [3]: 8.1 nM; Reporter Gene Assay (Jurkat-PD1-NFAT cells and CHO-PD-L1-CD3L cells), luciferase RLU, EC50 [4]: 4.9 nM; binding result [5]: no binding (tested: 60 nM); Kd [6]: 1.32 nM; koff [6]: 0.000281 s⁻¹; kon [6]: 213000 M⁻¹ s⁻¹
2 | B2 | 1.34 nM | 1.34 nM | 0.000434 s⁻¹ | 324000 M⁻¹ s⁻¹ | –
3 | B3 | 2.8 nM | 2.8 nM | 0.0019 s⁻¹ | 679000 M⁻¹ s⁻¹ | –
4 | B4 | 1.26 nM | 1.26 nM | 0.000709 s⁻¹ | 562000 M⁻¹ s⁻¹ | –
5 | B5 | 7.8 nM | 7.8 nM | 0.00487 s⁻¹ | 624000 M⁻¹ s⁻¹ | –
6 | B6 | 9.36 nM | 9.36 nM | 0.0065 s⁻¹ | 695000 M⁻¹ s⁻¹ | –
7 | B7 | 4.59 nM | 4.59 nM | 0.00157 s⁻¹ | 341000 M⁻¹ s⁻¹ | –
8 | B8 | 1.18 nM | 1.18 nM | 0.000419 s⁻¹ | 356000 M⁻¹ s⁻¹ | –
9 | B9 | 4.31 nM | – | – | – | –
10 | B10 | 3.24 nM | – | – | – | –
11 | B11 | 1.54 nM | – | – | – | –
12 | B12 | 4.26 nM | – | – | – | –
13 | B13 | 3.81 nM | – | – | – | –
14 | B14 | 4.75 nM | – | – | – | –
15 | B15 | 3.18 nM | – | – | – | –
